Experimental findings from patent US20220125885A1, “GLUCAGON ANALOG AGONISTS AND METHODS OF USING THE SAME” (Eli Lilly and Company, priority 2019, published 2022) are described below.

Data set [1] deals with T1, human GIP receptor (hGIP-R) (Homo sapiens, UniProt P48546).
T1 construct: expressed in transfected cells; host or cells: HEK-293 clonal cell line
T1 sequence (P48546 22-466): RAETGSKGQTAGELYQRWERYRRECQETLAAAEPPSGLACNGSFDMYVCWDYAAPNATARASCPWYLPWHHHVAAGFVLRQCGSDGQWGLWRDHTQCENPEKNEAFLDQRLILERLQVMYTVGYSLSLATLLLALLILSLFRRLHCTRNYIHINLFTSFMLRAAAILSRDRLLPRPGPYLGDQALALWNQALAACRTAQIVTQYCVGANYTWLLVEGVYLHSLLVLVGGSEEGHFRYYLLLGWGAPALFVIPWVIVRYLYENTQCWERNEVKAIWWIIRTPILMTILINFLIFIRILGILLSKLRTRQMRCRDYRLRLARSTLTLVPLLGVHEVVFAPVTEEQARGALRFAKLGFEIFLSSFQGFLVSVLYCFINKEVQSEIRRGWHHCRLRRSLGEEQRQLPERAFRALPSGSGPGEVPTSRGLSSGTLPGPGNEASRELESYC
The data set is described as follows: cAMP functional activity assay, hGIP-R HEK-293 cells. It counts as cell-based. The protocol: After a sixty-minute incubation at room temperature, the resulting increase in intracellular cAMP is quantitatively determined using a cAMP Dynamic 2 HTRF Assay Kit (62AM4PEJ; CisBio; Codolet, FR). Briefly, cAMP levels within the cell are detected by adding a cAMP-d2 conjugate in cell lysis buffer (10 μl) followed by an anti-cAMP-Eu3+-Cryptate antibody, also in cell lysis buffer (10 μl). […] A relative EC50 value and percent top (Emax) are derived by non-linear regression analysis using the percent maximal response vs. the concentration of peptide added, fitted to a four-parameter logistic equation.

For data set [2], the target named is T2, human GLP-1 receptor (hGLP-1R) (Homo sapiens, UniProt P43220).
T2 construct: expressed in transfected cells; host or cells: HEK-293 clonal cell line
The data set is described as follows: cAMP functional activity assay, hGLP-1R HEK-293 cells. Type of data set: cell-based. To be noted: HEK293; percent of response to 10 nM GLP-1(7-36)NH2; mean ± SEM.

Data set [3] is described as follows: in vivo. To be noted: male, Yucatan miniature swine, pig, sc, 10 ug/kg. As to the method: 1. […] The compounds and an analog as an internal standard are extracted from […] by antibody or protein precipitations. The intact mass of the compounds are detected by a Q Exactive® Orbitrap® Mass Spectrometer (Thermo Fisher Scientific; Waltham, Mass.). 2. […] Blood is collected at pre-dose, 2, 5, 10, 15, 20, 25, 30, 45, 60, 75, 90, 120 and 150 minutes post-dose, and plasma is obtained for pharmacokinetic characterization. […] Blood is collected at pre-dose, 2, 5, 10, 15, 20, 25, 30, 45, 60, 75, 90, 120 and 150 minutes postdose, and plasma is obtained for pharmacokinetic characterization.

Data set [4] concerns the target T3, rat glucagon receptor (rat, UniProt P30082 27-485).
T3 construct: whole, on cells; cAMP assay used a cloned rat glucagon receptor HEK293 cell line; also called rGCGR; ratGCGR
The data set is described as follows: SPA competition with 125I-labelled glucagon on rGCGR membranes. The protocol: (§1) Plates are sealed, mixed on a plate shaker, and read with a MicroBeta™ scintillation counter (PerkinElmer) after 12 hr of settling time at room temperature.
The SPA receptor binding assay and calculation of the results are carried out as described in the hGCGR binding assay.

The target in data set [5] is T4, human GLP-1 receptor (human, UniProt P43220 24-463). The data set is described as follows: cell-based or functional assay.
Data set [6] addresses T5, human glucagon receptor (human, UniProt P47871 26-477). The data set is described as follows: cell-based or functional assay.
Data set [7] deals with human GIP receptor (human) (UniProt P48546). The data set is described as follows: cell-based or functional assay.
The target in data set [8] is T3, rat glucagon receptor. Kind of data set: cell-based or functional assay.
The target in data set [9] is T5, human glucagon receptor. The data set is described as follows: SPA competition with 125I-labelled glucagon on hGCGR membranes.
Excerpt: as §1

The target in data set [10] is T4, human GLP-1 receptor. The data set is described as follows: cell-based or functional assay. This is another data set of the same source.
In data set [11] the target is T5, human glucagon receptor. The data set is described as follows: cell-based or functional assay. This is another data set of the same source.

Where no end group is shown, it is not given here. [ ]: non-standard residue; d: D form. 4Pal = N[C@@H](Cc1ccncc1)C(=O)O; Dab = NCC[C@H](N)C(=O)O; Aib = CC(C)(N)C(=O)O

T3 sequence (P30082 27-485): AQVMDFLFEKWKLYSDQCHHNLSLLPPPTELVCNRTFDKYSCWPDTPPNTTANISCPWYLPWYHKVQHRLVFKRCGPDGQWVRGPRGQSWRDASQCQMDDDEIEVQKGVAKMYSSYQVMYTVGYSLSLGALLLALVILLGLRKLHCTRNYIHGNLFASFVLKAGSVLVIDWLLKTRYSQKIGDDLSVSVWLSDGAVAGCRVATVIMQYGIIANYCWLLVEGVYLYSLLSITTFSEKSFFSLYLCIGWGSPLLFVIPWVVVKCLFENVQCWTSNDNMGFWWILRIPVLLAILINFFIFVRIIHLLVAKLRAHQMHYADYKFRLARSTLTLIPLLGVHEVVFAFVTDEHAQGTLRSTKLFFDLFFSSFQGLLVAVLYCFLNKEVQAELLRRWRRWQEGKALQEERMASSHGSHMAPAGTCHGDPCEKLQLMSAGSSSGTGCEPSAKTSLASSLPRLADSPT
T5 sequence (P47871 26-477): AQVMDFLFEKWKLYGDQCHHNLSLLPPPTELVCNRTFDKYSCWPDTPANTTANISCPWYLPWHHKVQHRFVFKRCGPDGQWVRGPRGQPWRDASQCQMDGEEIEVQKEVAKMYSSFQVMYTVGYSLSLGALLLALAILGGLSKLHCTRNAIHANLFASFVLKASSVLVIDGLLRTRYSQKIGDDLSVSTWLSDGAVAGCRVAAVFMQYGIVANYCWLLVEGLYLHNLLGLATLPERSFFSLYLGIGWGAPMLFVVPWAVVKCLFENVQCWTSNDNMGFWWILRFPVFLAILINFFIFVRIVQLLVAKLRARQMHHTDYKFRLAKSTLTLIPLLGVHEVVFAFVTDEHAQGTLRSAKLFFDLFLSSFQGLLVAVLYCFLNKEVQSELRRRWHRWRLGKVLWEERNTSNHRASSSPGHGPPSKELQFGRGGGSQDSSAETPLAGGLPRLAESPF
T2 sequence (P43220 24-463): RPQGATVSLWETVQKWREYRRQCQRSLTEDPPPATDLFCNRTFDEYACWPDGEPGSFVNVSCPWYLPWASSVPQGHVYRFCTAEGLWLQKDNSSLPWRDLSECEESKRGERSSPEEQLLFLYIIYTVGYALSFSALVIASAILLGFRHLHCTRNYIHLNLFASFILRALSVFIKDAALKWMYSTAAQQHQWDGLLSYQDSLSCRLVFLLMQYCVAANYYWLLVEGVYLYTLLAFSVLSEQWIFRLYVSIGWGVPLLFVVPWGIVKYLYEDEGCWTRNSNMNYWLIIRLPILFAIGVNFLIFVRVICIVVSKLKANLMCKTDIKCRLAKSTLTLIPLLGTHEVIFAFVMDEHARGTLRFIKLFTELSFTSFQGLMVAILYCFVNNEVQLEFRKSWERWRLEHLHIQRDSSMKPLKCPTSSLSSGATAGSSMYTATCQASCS

Broadly, the Emax is the greatest response seen or fitted, relative to the assay's reference. By EC50 is commonly meant the midpoint of the concentration-response curve. For orientation: AUC(0-inf) means the area under the concentration-time curve extrapolated to infinity. As usually defined, the CL/F is the apparent clearance, not corrected for the fraction that reaches the circulation. As for `CC(C)C[C@H](NC(=O)[C@H](Cc1ccncc1)NC(=O)[C@H](CCCCN)NC(=O)[C@@H](NC(=O)[C@H](Cc1ccccc1)NC(=O)[C@H](C)NC(=O)[C@H](CCC(N)=O)NC(=O)[C@H](C)NC(=O)[C@H](CCCNC(=N)N)NC(=O)[C@H](CCCNC(=N)N)NC(=O)C(C)(C)NC(=O)[C@H](CC(=O)O)NC(=O)[C@H](CC(C)C)NC(=O)[C@H](Cc1ccc(O)cc1)NC(=O)[C@H](CCCCN)NC(=O)[C@H](CO)NC(=O)[C@H](Cc1ccc(O)cc1)NC(=O)[C@H](CC(=O)O)NC(=O)[C@H](CO)NC(=O)[C@@H](NC(=O)[C@H](Cc1ccccc1)NC(=O)[C@@H](NC(=O)CNC(=O)[C@H](CCC(N)=O)NC(=O)[C@H](CO)NC(=O)[C@@H](N)Cc1c[nH]cn1)[C@@H](C)O)[C@@H](C)O)C(C)C)C(=O)N[C@@H](CC(C)C)C(=O)N[C@@H](CO)C(=O)N[C@H](C(=O)O)[C@@H](C)O` [Example 2], the maximal response (Emax) at 9.95 µM in data set [1] (HEK293, percent of response to 10 nM GIP(1-42)NH2, Examples at 9.95 μM, read-out: Emax hGIPR) was below 5%. For the same molecule, in [1] (in the presence of FBS and BSA, read-out: cAMP EC50 hGIPR), the EC50 is above 9950 nM. Moreover, the Emax in [2] came out at 109 ± 4%. Also, the AUC(0-inf) in data set [3] (AUC0-inf) is 1.92 ng·h/mL. The CL/F in data set [3] (CL/F) was found to be 87 mL/min/kg.

B1: Example 1 compound (glucagon analog agonist, SEQ ID NO:3) (peptide)
peptide: HSQGTFTSDYSKYLD[Aib]RRAQQFVK[4Pal]LLST-OH
modifications: N-terminus assumed
SMILES: CC(C)C[C@H](NC(=O)[C@H](Cc1ccncc1)NC(=O)[C@H](CCCCN)NC(=O)[C@@H](NC(=O)[C@H](Cc1ccccc1)NC(=O)[C@H](CCC(N)=O)NC(=O)[C@H](CCC(N)=O)NC(=O)[C@H](C)NC(=O)[C@H](CCCNC(=N)N)NC(=O)[C@H](CCCNC(=N)N)NC(=O)C(C)(C)NC(=O)[C@H](CC(=O)O)NC(=O)[C@H](CC(C)C)NC(=O)[C@H](Cc1ccc(O)cc1)NC(=O)[C@H](CCCCN)NC(=O)[C@H](CO)NC(=O)[C@H](Cc1ccc(O)cc1)NC(=O)[C@H](CC(=O)O)NC(=O)[C@H](CO)NC(=O)[C@@H](NC(=O)[C@H](Cc1ccccc1)NC(=O)[C@@H](NC(=O)CNC(=O)[C@H](CCC(N)=O)NC(=O)[C@H](CO)NC(=O)[C@@H](N)Cc1c[nH]cn1)[C@@H](C)O)[C@@H](C)O)C(C)C)C(=O)N[C@@H](CC(C)C)C(=O)N[C@@H](CO)C(=O)N[C@H](C(=O)O)[C@@H](C)O
One may read the Ki as the equilibrium dissociation constant of an inhibitor or competing ligand from its target. Turning to B1, the figures for the Ki in [4] and in [9] were 17.4 nM and 3.18 nM, respectively. Besides, in data set [5], the “Emax (% of response to 10 nM GLP-1(7-36)NH2)” value was 105%. Also, the “Emax (% of response to 1 nM Glucagon)” value in data set [6] was determined as 103%. Besides, the Emax (% of response to 10 nM GIP(1-42)NH2), at 9.95 µM in data set [7] is below 5%. Further, the cAMP EC50 in data set [7] was above 9950 nM; in [8] it was 0.135 nM; in data set [10], 181 nM; in data set [11], 0.0143 nM.

B2: Example 2 compound (glucagon analog agonist, SEQ ID NO:4) (peptide)
peptide: HSQGTFTSDYSKYLD[Aib]RRAQAFVK[4Pal]LLST-OH
modifications: N-terminus assumed
SMILES: CC(C)C[C@H](NC(=O)[C@H](Cc1ccncc1)NC(=O)[C@H](CCCCN)NC(=O)[C@@H](NC(=O)[C@H](Cc1ccccc1)NC(=O)[C@H](C)NC(=O)[C@H](CCC(N)=O)NC(=O)[C@H](C)NC(=O)[C@H](CCCNC(=N)N)NC(=O)[C@H](CCCNC(=N)N)NC(=O)C(C)(C)NC(=O)[C@H](CC(=O)O)NC(=O)[C@H](CC(C)C)NC(=O)[C@H](Cc1ccc(O)cc1)NC(=O)[C@H](CCCCN)NC(=O)[C@H](CO)NC(=O)[C@H](Cc1ccc(O)cc1)NC(=O)[C@H](CC(=O)O)NC(=O)[C@H](CO)NC(=O)[C@@H](NC(=O)[C@H](Cc1ccccc1)NC(=O)[C@@H](NC(=O)CNC(=O)[C@H](CCC(N)=O)NC(=O)[C@H](CO)NC(=O)[C@@H](N)Cc1c[nH]cn1)[C@@H](C)O)[C@@H](C)O)C(C)C)C(=O)N[C@@H](CC(C)C)C(=O)N[C@@H](CO)C(=O)N[C@H](C(=O)O)[C@@H](C)O
With B2, the results for the Ki in data set [4] and in [9] were 34.2 nM and 6.87 nM, respectively. Further, the “Emax (% of response to 10 nM GLP-1(7-36)NH2)” value in data set [5] turned out to be 109%. The molecule further showed an Emax (% of response to 10 nM GIP(1-42)NH2), at 9.95 µM in [7] below 5%. Further, the cAMP EC50 in data set [7] is above 9950 nM; in [8], 0.204 nM; in [10] it was 250 nM; in data set [11], 0.0265 nM.

B3: Example 3 compound (glucagon analog agonist, SEQ ID NO:5) (peptide)
peptide: HS[Dab](Ac)GTFTSDYSKYLD[Aib]RRAQAFVK[4Pal]LLST-OH
modifications: N-terminus assumed
SMILES: CC(=O)NCC[C@H](NC(=O)[C@H](CO)NC(=O)[C@@H](N)Cc1c[nH]cn1)C(=O)NCC(=O)N[C@H](C(=O)N[C@@H](Cc1ccccc1)C(=O)N[C@H](C(=O)N[C@@H](CO)C(=O)N[C@@H](CC(=O)O)C(=O)N[C@@H](Cc1ccc(O)cc1)C(=O)N[C@@H](CO)C(=O)N[C@@H](CCCCN)C(=O)N[C@@H](Cc1ccc(O)cc1)C(=O)N[C@@H](CC(C)C)C(=O)N[C@@H](CC(=O)O)C(=O)NC(C)(C)C(=O)N[C@@H](CCCNC(=N)N)C(=O)N[C@@H](CCCNC(=N)N)C(=O)N[C@@H](C)C(=O)N[C@@H](CCC(N)=O)C(=O)N[C@@H](C)C(=O)N[C@@H](Cc1ccccc1)C(=O)N[C@H](C(=O)N[C@@H](CCCCN)C(=O)N[C@@H](Cc1ccncc1)C(=O)N[C@@H](CC(C)C)C(=O)N[C@@H](CC(C)C)C(=O)N[C@@H](CO)C(=O)N[C@H](C(=O)O)[C@@H](C)O)C(C)C)[C@@H](C)O)[C@@H](C)O
Take B3: the inhibition constant Ki in [4] is 21.7 nM; in data set [9], 2.08 nM. Moreover, the “Emax (% of response to 10 nM GLP-1(7-36)NH2)” value in [5] stood at 109%. Besides, the Emax (% of response to 10 nM GIP(1-42)NH2), at 9.95 µM in data set [7] was below 5%. The cAMP EC50 in [7] is above 9950 nM; in [8] it was 0.188 nM; in [10], 1300 nM; in data set [11] it was 0.0108 nM.

B4: Example 4 compound (glucagon analog agonist, SEQ ID NO:6) (peptide)
peptide: HS[Dab](Ac)GTFTSDYSKYLD[Aib]RRAQQFVK[4Pal]LLST-OH
modifications: N-terminus assumed
SMILES: CC(=O)NCC[C@H](NC(=O)[C@H](CO)NC(=O)[C@@H](N)Cc1c[nH]cn1)C(=O)NCC(=O)N[C@H](C(=O)N[C@@H](Cc1ccccc1)C(=O)N[C@H](C(=O)N[C@@H](CO)C(=O)N[C@@H](CC(=O)O)C(=O)N[C@@H](Cc1ccc(O)cc1)C(=O)N[C@@H](CO)C(=O)N[C@@H](CCCCN)C(=O)N[C@@H](Cc1ccc(O)cc1)C(=O)N[C@@H](CC(C)C)C(=O)N[C@@H](CC(=O)O)C(=O)NC(C)(C)C(=O)N[C@@H](CCCNC(=N)N)C(=O)N[C@@H](CCCNC(=N)N)C(=O)N[C@@H](C)C(=O)N[C@@H](CCC(N)=O)C(=O)N[C@@H](CCC(N)=O)C(=O)N[C@@H](Cc1ccccc1)C(=O)N[C@H](C(=O)N[C@@H](CCCCN)C(=O)N[C@@H](Cc1ccncc1)C(=O)N[C@@H](CC(C)C)C(=O)N[C@@H](CC(C)C)C(=O)N[C@@H](CO)C(=O)N[C@H](C(=O)O)[C@@H](C)O)C(C)C)[C@@H](C)O)[C@@H](C)O
For B4, the Ki amounted to 13.5 nM in [4] and 1.2 nM in [9]. Moreover, in data set [5], the “Emax (% of response to 10 nM GLP-1(7-36)NH2)” value was determined as 100%. For the same molecule, the “Emax (% of response to 1 nM Glucagon)” value in data set [6] is 98%. In data set [7], this molecule returned an Emax (% of response to 10 nM GIP(1-42)NH2), at 9.95 µM below 5%. Besides, the cAMP EC50 was above 9950 nM in data set [7], 0.083 nM in [8], 1270 nM in [10] and 0.00888 nM in data set [11].
